Positions count from the first letter of the chain named.
Experiments:
[1] = biological target: T1, C-terminus-biotin labeled compound 1 (an N-terminus peptide of FGF-8) (human, C-terminus biotin label); assay: BIAcore 2000, biotin FGF-8 peptide on SA chip, antibody in solution, RU compared; dissociation hardly observed
T1 construct: also called FGF-8 peptide
T1 peptide: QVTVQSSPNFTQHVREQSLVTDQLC
Method: In order to examine the activity of various anti-FGF-8 CDR-grafted antibodies obtained in the item 5 of Example 5 to bind to FGF-8 in more detail, activities of various anti-FGF-8 CDR-grafted antibodies to bind to FGF-8 were measured and compared as follows by using BIAcore 2000 (manufactured by BIACORE). The CHO/DG44-derived anti-FGF-8 chimeric antibody KM3034 obtained in the item 3(1) of Example 3 was used as a positive control.
Hereinbelow, HBS-EP (manufactured by Pharmacia) was used as the buffer solution for dilution of samples and during the measurement. First, a sensor tip SA (manufactured by BIACORE) was set, and 5 μl of a C-terminus-biotin labeled compound 1 (an N-terminus peptide of FGF-8; SEQ ID NO:17) prepared to a solution of 0.05 μg/ml was added thereto at a flow rate of […]. Thereafter, the tip surface was washed by adding 5 μl of 10 mmol/l Glycine-HCl buffer (pH 1.5) continuously twice. Immobilized amount of the FGF-8 peptide was 35 RU.
To the FGF-8 peptide immobilized flow cell, 60 μl of each antibody solution was added at a flow rate of 20 μl/minute, and then the dissociation reaction was monitored for 3 minutes. After the dissociation reaction, the tip surface was regenerated by adding 20 μl of 10 mmol/l Glycine-HCl buffer (pH 1.5) continuously twice. This cycle was carried out for antibody solutions of various concentrations (50 to 1.85 μg/ml), and a sensorgram at each concentration was obtained. The sensorgram of each antibody was made into a sensorgram of specific reaction by subtracting a sensorgram obtained using a chimeric antibody KM871 for GD3 [Cancer Immunol. Immunother., 36, 373 (1993)] as a negative control.

[2] = biological target: T2, human FGF-8 partial peptide (Sequence ID NO:1) cross-linked with thyroglobulin (human, cross-linked to thyroglobulin (THY) with glutaraldehyde); assay: enzyme immunoassay, peptide-thyroglobulin conjugate coated on the plate
T2 construct: Coated on the plate as a thyroglobulin conjugate; also called THY-FGF-8 peptide antigen; FGF-8 peptide
T2 peptide: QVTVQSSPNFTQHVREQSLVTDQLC
Method: A conjugate obtained by cross-linking the human FGF-8 partial peptide shown in Sequence ID NO:1 with thyroglobulin in the following manner was used as the antigen for the assay. That is, 1 mg of the peptide was dissolved in 0.1 M ammonium acetate buffer and the solution was adjusted to 1 ml by adding 5 mg of THY which has been dissolved in advance in the same buffer. To this, while stirring, was added dropwise 540 μl of 0.02 M glutaraldehyde, followed by 5 hours of stirring at room temperature to effect the reaction. After the reaction, the reaction solution was dialyzed overnight against PBS and used as the antigen. A conjugate obtained in the same manner by cross-linking the peptide shown in Sequence ID NO:2 with THY was used as a reference antigen. […] After washing with Tween-PBS, a peroxidase-labeled rabbit anti-mouse immunoglobulin (manufactured by DAKO) was distributed in 50 μl portions into wells of the plate to carry out 1 hour of reaction at room temperature, the plate was again washed with Tween-PBS, and then color development was effected using an ABTS substrate [2,2-azinobis(3-ethylbenzothiazole-6-sulfonic acid)ammonium] solution and absorbance at OD₄₁₅ was measured (NJ 2001, Japan Intermed).

[3] = biological target: T3, BSA-compound 1 (Compound 1, human FGF-8 peptide, conjugated with bovine serum albumin) (human, conjugated to BSA through SMCC); assay: ELISA on BSA-compound 1, positive control
T3 peptide: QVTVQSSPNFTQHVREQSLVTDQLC
Method: The conjugate prepared in the above was dispensed at 50 μl/well into a 96 well plate for ELISA (manufactured by Greiner) at a concentration of 0.5 to 1.0 μg/ml and allowed to stand for adsorption overnight at 4° C. After washing with PBS, 1% BSA-containing PBS (BSA-PBS) was added at 100 μl/well and allowed for blocking of remaining active groups to react at room temperature for 1 hour. After washing each well with 0.05% Tween-containing PBS (Tween-PBS), culture supernatants of transformants or purified antibodies were added at 50 μl/well and allowed to react at room temperature for 1 hour. After the reaction, each well was washed with Tween-PBS and then a peroxidase-labeled goat anti-human IgG (H & L) antibody solution (manufactured by American Qualex) diluted 3,000 to 6,000-folds with BSA-PBS was added as a secondary antibody solution at 50 μl/well and allowed to react at room temperature for 1 hour. […] Thereafter, absorbance at 415 nm (OD415) was measured.
The activity of various anti-FGF-8 CDR-grafted antibodies obtained in the item 4 of Example 4 to bind to FGF-8 was measured by the ELISA described in the item 2(6) of Example 3. […]

[4] = biological target: T3, BSA-compound 1 (Compound 1, human FGF-8 …); assay: ELISA on BSA-compound 1
Method: The conjugate prepared in the above was dispensed at 50 μl/well into a 96 well plate for ELISA (manufactured by Greiner) at a concentration of 0.5 to 1.0 μg/ml and allowed to stand for adsorption overnight at 4° C. After washing with PBS, 1% BSA-containing PBS (BSA-PBS) was added at 100 μl/well and allowed for blocking of remaining active groups to react at room temperature for 1 hour. After washing each well with 0.05% Tween-containing PBS (Tween-PBS), culture supernatants of transformants or purified antibodies were added at 50 μl/well and allowed to react at room temperature for 1 hour. After the reaction, each well was washed with Tween-PBS and then a peroxidase-labeled goat anti-human IgG (H & L) antibody solution (manufactured by American Qualex) diluted 3,000 to 6,000-folds with BSA-PBS was added as a secondary antibody solution at 50 μl/well and allowed to react at room temperature for 1 hour. After the reaction and subsequent washing with Tween-PBS, an ABTS substrate solution [a solution prepared by dissolving 0.55 g of 2,2′-azinobis(3-ethylbenzothiazoline-6-sulfonic acid) ammonium in 1 L of 0.1 M citrate buffer (pH 4.2) and adding 1 μl/ml hydrogen peroxide just before use] was added at 50 μl/well for color development, and the reaction was stopped by adding 5% SDS solution at 50 μl/well. Thereafter, absorbance at 415 nm (OD415) was measured.
The activity of various anti-FGF-8 CDR-grafted antibodies obtained in the item 4 of Example 4 to bind to FGF-8 was measured by the ELISA described in the item 2(6) of Example 3. The YB2/0-derived anti-FGF-8 chimeric antibody KM3334 obtained in the item 3(2) of Example 3 was used as a positive control.

[5] = biological target: T4, FGF-8 (manufactured by R&D) (UniProt P55075-3 23-215, limits assumed); assay: cell-based or functional assay
T4 sequence (looked up): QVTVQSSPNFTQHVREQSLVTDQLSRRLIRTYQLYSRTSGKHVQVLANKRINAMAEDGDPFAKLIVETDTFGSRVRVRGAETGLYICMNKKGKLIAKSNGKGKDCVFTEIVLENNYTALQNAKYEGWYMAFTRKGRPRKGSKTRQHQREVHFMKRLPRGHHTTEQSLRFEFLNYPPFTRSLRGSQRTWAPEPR

[6] = biological target: T1, C-terminus-biotin labeled compound 1 …; assay: BIAcore 2000, biotin FGF-8 peptide on SA chip, Example 6, RU compared; dissociation hardly observed

B1: anti-FGF-8 CDR-grafted antibody HV0LV3-1/CHO (antibody, V domains shown)
VH: QVQLVQSGAEVKKPGASVKVSCKASGYTFTDYYLNWVRQAPGQGLEWMGEIDPGSDSIYYNENLEGRVTITADTSTSTAYMELSSLRSEDTAVYYCARYGYSRYDVRFVYWGQGTLVTVSS
VL: DVVMTQSPLSLPVTPGEPASISCRSSQSLVHSNGRTYLEWYLQKPGQSPQVLIYKVSNRISGVPDRFSGSGSGTDFTLKISRVEAEDVGVYFCFQGSHVPYTFGQGTKVEIK
notes: HV.0 + LV.3-1, human gamma1/kappa constant regions, made in CHO/DG44 cells; also called KM8036; FERM BP-8083
B1: binds [1].

B2: anti-FGF-8 chimeric antibody KM3034 (antibody, V domains shown)
VH: QVQLQQSGAEVARPGASVKLSCKASGYTFTDYYLNWVKQRSGQGLEWIGEIDPGSDSIYYNENLEGRATLTADKSSSTAYMQLNSLTSEDSAVYFCARYGYSRYDVRFVYWGQGTLVTVST
VL: B1 VL with V3L, S7T, T14S, P15L, E17D, P18Q, Q50K, V88L, Q105G, V109L
notes: Human chimeric antibody, human gamma1 CH and kappa CL (vector pKANTEX93), made in CHO/DG44 cells; also called FERM BP-7836
B2: binds [1].

B3: anti-FGF-8 monoclonal antibody KM 1334 (antibody, mouse IgG1, V domains shown)
VH: B2 VH
VL: B1 VL with V3L, S7T, T14S, P15L, E17D, P18Q, Q50K, V88L, Q105G, V109L
notes: Mouse IgG1, kappa L chain, purified from ascites; also called anti-FGF-8 mouse antibody KM1334; antibody of hybridoma FERM BP-5451
B3: binds [2].

B4: anti-FGF-8 chimeric antibody KM3334 (antibody, V domains shown)
VH: B2 VH
VL: B1 VL with V3L, S7T, T14S, P15L, E17D, P18Q, Q50K, V88L, Q105G, V109L
B4: binds [3].

B5: anti-FGF-8 CDR-grafted antibody HV0LV6 (YB2/0 cell-derived) (antibody, V domains shown)
VH: B1 VH
VL: B1 VL with T14S, P15L, Q50K
notes: also called KM8037; FERM BP-8084
B5: binds [4].

B6: anti-FGF-8 CDR-grafted antibody HV0LV4-3/CHO (antibody, V domains shown)
VH: B1 VH
VL: B1 VL with V2I, T14S, P15L
notes: HV.0 + LV.4-3, human gamma1/kappa constant regions, made in CHO/DG44 cells; also called KM8035
For B6, the “FGF-8 neutralization activity, FGF-8-dependent growth of SC-3 cells” value [5] was ~0.5 fold of the activity of KM3034 and the binding result [6] was “binds”.

B7: anti-FGF-8 CDR-grafted antibody HV0LV0/CHO (antibody, V domains shown)
VH: B1 VH
VL: B1 VL with V2I, V51L, F92Y
B7: binds [1].

B8: anti-FGF-8 CDR-grafted antibody HV0LV0 (YB2/0 cell-derived) (antibody, V domains shown)
VH: B1 VH
VL: B1 VL with V2I, V51L, F92Y
B8: binds [4].

B9: anti-FGF-8 CDR-grafted antibody HV0LV3-3/CHO (antibody, V domains shown)
VH: B1 VH
VL: B1 VL with V2I, T14S, P15L, F92Y
With B9 the “FGF-8 neutralization activity, FGF-8-dependent growth of SC-3 cells” value [5] was ~0.5 fold of the activity of KM3034.

B10: anti-FGF-8 CDR-grafted antibody HV6LV6 (YB2/0 cell-derived) (antibody, V domains shown)
VH: B1 VH with K12A, K13R, A40R, P41S, M48I, Y95F
VL: B1 VL with T14S, P15L, Q50K
B10: binds [4].

B11: anti-FGF-8 CDR-grafted antibody HV0LV6/CHO (antibody, V domains shown)
VH: B1 VH
VL: B1 VL with T14S, P15L, Q50K
notes: also called KM8034
B11: binds [1].

— patent US20040091480A1 (Kyowa Kirin, published 2004)
